Data: patent US20190002539A1 (NATIONAL CENTER FOR AIDS STD CONTROL AND PREVENTION CHINESE …, published 2019)

What was measured:
[1] = biological target: HIV-1 Env of pseudovirus 398-F1 (HIV-1); experiment: cell-based or functional assay
[2] = biological target: HIV-1 Env of pseudovirus TRO.11 (HIV-1); experiment: cell-based or functional assay
[3] = biological target: HIV-1 Env of pseudovirus X2278 (HIV-1); experiment: cell-based or functional assay
[4] = biological target: HIV-1 Env of pseudovirus 25710 (HIV-1); experiment: cell-based or functional assay
[5] = biological target: HIV-1 Env of pseudovirus Ce0217 (HIV-1); experiment: cell-based or functional assay
[6] = biological target: HIV-1 Env of pseudovirus Ce1176 (HIV-1); experiment: cell-based or functional assay
[7] = biological target: HIV-1 Env of pseudovirus X1632 (HIV-1); experiment: cell-based or functional assay
[8] = biological target: HIV-1 Env of pseudovirus CNE55 (HIV-1); experiment: cell-based or functional assay
[9] = biological target: HIV-1 Env of pseudovirus CNE8 (HIV-1); experiment: cell-based or functional assay
[10] = biological target: HIV-1 Env of pseudovirus BJOX2000 (HIV-1); experiment: cell-based or functional assay
[11] = biological target: HIV-1 Env of pseudovirus CH119.10 (HIV-1); experiment: cell-based or functional assay
[12] = biological target: HIV-1 Env of pseudovirus 246 (HIV-1); experiment: cell-based or functional assay
[13] = biological target: HIV-1 Env of pseudovirus SF162 (HIV-1, UniProt P19550 32-847); experiment: cell-based or functional assay
[14] = biological target: HIV-1 Env of pseudovirus QH0692 (HIV-1); experiment: cell-based or functional assay
[15] = biological target: HIV-1 Env of pseudovirus SC422661 (HIV-1); experiment: cell-based or functional assay
[16] = biological target: HIV-1 Env of pseudovirus PV0.4 (HIV-1); experiment: cell-based or functional assay
[17] = biological target: HIV-1 Env of pseudovirus AC10 (HIV-1); experiment: cell-based or functional assay
[18] = biological target: HIV-1 Env of pseudovirus RHPA4259 (HIV-1); experiment: cell-based or functional assay
[19] = biological target: HIV-1 Env of pseudovirus REJO4541 (HIV-1); experiment: cell-based or functional assay
[20] = biological target: HIV-1 Env of pseudovirus TRJO4551 (HIV-1); experiment: cell-based or functional assay
[21] = biological target: HIV-1 Env of pseudovirus CAAN5342 (HIV-1); experiment: cell-based or functional assay
[22] = biological target: HIV-1 Env of pseudovirus CH110 (HIV-1); experiment: cell-based or functional assay
[23] = biological target: HIV-1 Env of pseudovirus CH117 (HIV-1); experiment: cell-based or functional assay
[24] = biological target: HIV-1 Env of pseudovirus CH181 (HIV-1); experiment: cell-based or functional assay
[25] = biological target: HIV-1 Env of pseudovirus CH120 (HIV-1); experiment: cell-based or functional assay
[26] = biological target: HIV-1 Env of pseudovirus MW965 (HIV-1); experiment: cell-based or functional assay
[27] = biological target: HIV-1 Env of pseudovirus ZM109F (HIV-1); experiment: cell-based or functional assay
[28] = biological target: HIV-1 Env of pseudovirus Du422 (HIV-1); experiment: cell-based or functional assay
[29] = biological target: HIV-1 Env of pseudovirus ZM249M (HIV-1); experiment: cell-based or functional assay
[30] = biological target: HIV-1 Env of pseudovirus CAP45 (HIV-1); experiment: cell-based or functional assay
[31] = biological target: HIV-1 Env of pseudovirus Q461 (HIV-1); experiment: cell-based or functional assay
[32] = biological target: HIV-1 Env of pseudovirus Q769 (HIV-1); experiment: cell-based or functional assay
[33] = biological target: HIV-1 Env of pseudovirus Q259 (HIV-1); experiment: cell-based or functional assay
[34] = biological target: HIV-1 Env of pseudovirus Q842 (HIV-1); experiment: cell-based or functional assay
[35] = biological target: HIV-1 Env of pseudovirus BJMSM2249 (HIV-1); experiment: cell-based or functional assay
[36] = biological target: HIV-1 Env of pseudovirus BJMSM2316 (HIV-1); experiment: cell-based or functional assay
[37] = biological target: HIV-1 Env of pseudovirus BJMSM2498 (HIV-1); experiment: cell-based or functional assay
wild-type (WT) YU2 gp120 = biological target: T1, wild-type (WT) YU2 gp120 (HIV-1, UniProt P35961 32-498); experiment: ELISA, antigen coated at 2 µg/ml
T1 construct: domain: gp120

B1: monoclonal antibody DRVIA7H+VRC01L (antibody, V domains shown)
VH: QVQLVESGTQFRRPGASVRLSCEASGYTFISSFIHWIRQGPGQGLEWMGWMNPRHGAVNYPRRFQGKVTMTRDTSIDTAYMELRDLRSDDTAMYFCVTSRTKDYDWDFVWGQGTLVVVSS
VL: EIVLTQSPGTLSLSPGETAIISCRTSQYGSLAWYQQRPGQAPRLVIYSGSTRAAGIPDRFSGSRWGPDYNLTISNLESGDFGVYYCQQYEFFGQGTKVQVDI
IC50 in µg/ml, TZM-bl/pseudovirus neutralizing assay [1]: 0.8 µg/mL
IC50 in µg/ml, TZM-bl/pseudovirus neutralizing assay [2]: 1.18 µg/mL
IC50 in µg/ml, TZM-bl/pseudovirus neutralizing assay [3]: 0.34 µg/mL
IC50 in µg/ml, TZM-bl/pseudovirus neutralizing assay [4]: 2.5 µg/mL
IC50 in µg/ml, TZM-bl/pseudovirus neutralizing assay [5]: 0.65 µg/mL
IC50 in µg/ml, TZM-bl/pseudovirus neutralizing assay [6]: 4.08 µg/mL
IC50 in µg/ml, TZM-bl/pseudovirus neutralizing assay [7]: 0.61 µg/mL
IC50 in µg/ml, TZM-bl/pseudovirus neutralizing assay [8]: 1.23 µg/mL
IC50 in µg/ml, TZM-bl/pseudovirus neutralizing assay [9]: 1.48 µg/mL
IC50 in µg/ml, TZM-bl/pseudovirus neutralizing assay [10]: 15.9 µg/mL
IC50 in µg/ml, TZM-bl/pseudovirus neutralizing assay [11]: 1.85 µg/mL
IC50 in µg/ml, TZM-bl/pseudovirus neutralizing assay [12]: 1.29 µg/mL
IC50 in µg/ml, TZM-bl/pseudovirus neutralizing assay [13]: 0.3 µg/mL
IC50 in µg/ml, TZM-bl/pseudovirus neutralizing assay [14]: 2.03 µg/mL
IC50 in µg/ml, TZM-bl/pseudovirus neutralizing assay [15]: 0.58 µg/mL
IC50 in µg/ml, TZM-bl/pseudovirus neutralizing assay [16]: 1.18 µg/mL
IC50 in µg/ml, TZM-bl/pseudovirus neutralizing assay [17]: 15.5 µg/mL
IC50 in µg/ml, TZM-bl/pseudovirus neutralizing assay [18]: 0.34 µg/mL
IC50 in µg/ml, TZM-bl/pseudovirus neutralizing assay [19]: 0.75 µg/mL
IC50 in µg/ml, TZM-bl/pseudovirus neutralizing assay [20]: 1.44 µg/mL
IC50 in µg/ml, TZM-bl/pseudovirus neutralizing assay [21]: 3.4 µg/mL
IC50 in µg/ml, TZM-bl/pseudovirus neutralizing assay [22]: 0.15 µg/mL
IC50 in µg/ml, TZM-bl/pseudovirus neutralizing assay [23]: 0.59 µg/mL
IC50 in µg/ml, TZM-bl/pseudovirus neutralizing assay [24]: 0.98 µg/mL
IC50 in µg/ml, TZM-bl/pseudovirus neutralizing assay [25]: 6.53 µg/mL
IC50 in µg/ml, TZM-bl/pseudovirus neutralizing assay [26]: 0.2 µg/mL
IC50 in µg/ml, TZM-bl/pseudovirus neutralizing assay [27]: 0.59 µg/mL
IC50 in µg/ml, TZM-bl/pseudovirus neutralizing assay [28]: > 20 µg/mL
IC50 in µg/ml, TZM-bl/pseudovirus neutralizing assay [29]: 0.74 µg/mL
IC50 in µg/ml, TZM-bl/pseudovirus neutralizing assay [30]: 0.84 µg/mL
IC50 in µg/ml, TZM-bl/pseudovirus neutralizing assay [31]: 1.4 µg/mL
IC50 in µg/ml, TZM-bl/pseudovirus neutralizing assay [32]: 0.3 µg/mL
IC50 in µg/ml, TZM-bl/pseudovirus neutralizing assay [33]: > 20 µg/mL
IC50 in µg/ml, TZM-bl/pseudovirus neutralizing assay [34]: 0.18 µg/mL
IC50 in µg/ml, TZM-bl/pseudovirus neutralizing assay [35]: 2.25 µg/mL
IC50 in µg/ml, TZM-bl/pseudovirus neutralizing assay [36]: 0.47 µg/mL
IC50 in µg/ml, TZM-bl/pseudovirus neutralizing assay [37]: 4.32 µg/mL
binding result (wild-type (WT) YU2 gp120): binds
